Measurements taken from PMC2688836 (2010).
Numbering of substitutions follows the chain as printed. In names and notes the source's numbering stands.

B1: NHERF1 PDZ2-CT E353A 150-358 (protein)
chain: LRPRLCTMKKGPSGYGFNLHSDKSKPGQFIRSVDPDSPAEASGLRAQDRIVEVNGVCMEGKQHGDVVSAIRAGGDETKLLVVDRETDEFFKKCRVIPSQEHLNGPLPVPFTNGEIQKENSREALAEAALESPRPALVRSASSDTSEELNSQDSPPKQDSTAPSSTSSSDPILDFNISLAMAKERAHQKRSSKRAPQMDWSKKNALFSNL
B2: NHERF1 PDZ2-CT L358D 150-358 (protein)
chain: B1 chain with A204E, L209D
B3: NHERF1 PDZ2-CT E353P 150-358 (protein)
chain: B1 chain with A204P
B4: NHERF1 PDZ2-CT 150-358 (protein)
chain: B1 chain with A204E

Biological target: C-CFTR 1411-1480 (Homo sapiens, UniProt P13569)
Experiment: SPR

Chain of C-CFTR 1411-1480 (P13569 1411-1480): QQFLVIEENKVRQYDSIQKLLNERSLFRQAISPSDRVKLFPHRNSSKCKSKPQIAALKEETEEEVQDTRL

Row | Kd [nM] | Binder
1 | 2500 | B1
2 | 1600 | B2
3 | 480 | B3
4 | 2000 | B4
